According to patent US12545745B2, “Method for treating a degenerative neurological disorders comprising administering ASM inhibitor” (KYUNGPOOK NATIONAL UNIVERSITY INDUSTRY-ACADEMIC COOPERATION …, priority 2013, dated 2026):

Tests used:
β-amyloid = β-amyloid deposition in brain tissue of APP/PS1 mice (thioflavin S, immunofluorescence, ELISA); type: in vivo, mouse; conditions: medulla and hippocampus, 50 mg/kg i.p. twice weekly, vs PBS
Description: First, the cerebral cortex and hippocampus tissue of each mouse prepared in Example 1-1 were isolated, and then a tissue fragment was obtained and this was dyed with thioflavin S according to a conventional known method. The results are illustrated in FIG. 3 (cerebral cortex) and FIG. 4 (hippocampus).
Also, immunofluorescence was performed according to a conventional known method using anti-20G10 (mouse, 1:1000) antibody against Aβ42, anti-G30 (rabbit, […]) antibody against Aβ40, anti-Iba-1 (rabbit, 1:500, Wako) antibody, anti-GFAP (rabbit, 1:500, DAKO) antibody and anti-active caspase3 (rabbit, 1:50, Chemicon) antibody. Tissue fragments were observed using a confocal laser scanning microscope equipped with Fluoview SV1000 imaging software (Olympus FV1000, Japan) or an Olympus BX51 microscope, and the percentage of the area of the dyed area with respect to the area of the entire tissue was quantified using Metamorph software (Molecular Devices).
Also, β-amyloid deposition was confirmed using commercially available ELISA kits (Biosource). More specifically, hemispheres of the brain of each mouse were homogenized in a buffer containing 0.02 M of guanidine. Thereafter, ELISA was performed for Aβ40 and Aβ42 according to the manufacturer's instructions.
After fixing the cerebral and hippocampal tissues of the mice, 0.5% thioflavin S (Sigma-Aldrich), anti-20G10 antibodies (mouse, 1:1000) against Aβ42, anti-G30 antibodies (rabbit, […]) against Aβ40, anti-GFAP antibodies (rabbit, 1:500, DAKO), or anti-Iba-1 antibodies (rabbit, 1:500, Wako) were co-cultured. The tissues were analyzed using a laser scanning confocal microscope equipped with Fluoview SV1000 imaging software (Olympus FV1000, Japan) or an Olympus BX51 microscope. Percentage of stained area to total tissue area was quantified and analyzed using Metamorph software (Molecular Devices).
After fixing the mouse brain and hippocampus, 0.5% thioflavin S (Sigma-Aldrich), anti-GFAP (rabbit, 1:500, DAKO), and anti-Iba-1 (rabbit, 1:500, WAKO) were co-cultured together. The regions were analyzed using a laser scanning confocal microscope equipped with Fluoview SV1000 imaging software (Olympus FV1000, Japan) or an Olympus BX51 microscope. Percentage of stained area to total tissue area was quantified and analyzed using Metamorph software (Molecular Devices).
Proteins were extracted from mouse brain and hippocampus, and the amounts of Abeta40 (KHB3481, Invitrogen) and Abeta42 (KHB3441, Invitrogen) were measured using ELISA.

ASM = target: T1, ASM (Mus musculus, UniProt Q04519); assay: ASM activity in plasma of ALS animal model (FUS R521C mice); type: in vivo; conditions: 7-week-old ALS mice, 50 mg/kg i.p. twice weekly, vs PBS; FIG. 56B
T1 construct: from tissue; host or cells: mouse serum/plasma and brain tissue (APP/PS1, RSD-stressed C57BL/6, FUS R521C mice)
T1 sequence (Q04519 45-627): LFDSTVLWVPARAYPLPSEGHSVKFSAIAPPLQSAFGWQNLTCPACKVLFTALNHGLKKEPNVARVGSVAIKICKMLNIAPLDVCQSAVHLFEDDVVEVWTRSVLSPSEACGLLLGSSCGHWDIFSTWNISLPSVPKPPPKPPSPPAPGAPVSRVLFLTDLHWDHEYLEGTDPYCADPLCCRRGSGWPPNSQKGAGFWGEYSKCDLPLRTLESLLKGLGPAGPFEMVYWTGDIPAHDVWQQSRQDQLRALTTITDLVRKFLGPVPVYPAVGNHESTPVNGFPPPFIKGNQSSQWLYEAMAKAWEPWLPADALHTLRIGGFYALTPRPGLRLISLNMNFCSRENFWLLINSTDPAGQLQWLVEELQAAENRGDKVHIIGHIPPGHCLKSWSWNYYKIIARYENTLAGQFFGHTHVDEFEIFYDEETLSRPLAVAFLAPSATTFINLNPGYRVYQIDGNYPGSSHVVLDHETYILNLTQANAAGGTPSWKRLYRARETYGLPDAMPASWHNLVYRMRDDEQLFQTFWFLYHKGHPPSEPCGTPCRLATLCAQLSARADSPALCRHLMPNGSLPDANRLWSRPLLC

[1] = tested on: ALS animal model (FUS R521C); assay: Motor function tests (Tail suspension, Hanging wire, Rotarod) in ALS animal model; type: in vivo, mouse; conditions: ALS mice, 50 mg/kg i.p. twice weekly, vs PBS, FIG. 57A-57C
ASM protein = ASM protein concentration in plasma of APP/PS1 mice (ELISA); type: in vivo, mouse; conditions: 50 mg/kg i.p. twice weekly, between groups, FIG. 51C
APP/PS1 mice = assay: Fear conditioning test in APP/PS1 mice; type: in vivo, mouse; conditions: 50 mg/kg i.p. twice weekly, vs PBS, FIG. 55D
Description: More specifically, wild type mice, APP/PS1/ASM^+/− mice, ASM^+/− mice and APP/PS1 mice were used. On day 1 of the test, each mouse was individually placed into a conditioned chamber, and then after a 60-second exploratory period, a tone (10 kHz, 70 dB) was delivered for 10 seconds. This served as the conditioned stimulus (CS). The CS was coterminated with the unconditioned stimulus (US), an electrical footshock (0.3 mA, 1 s). The CS-US pairing was delivered twice at a 20-second intertrial interval. On day 2, each mouse was placed in the fear-conditioning chamber containing the same exact context, but without administration of a CS or footshock. […] On day 3, each mouse was placed in a test chamber that was different from the conditioning chamber. After a 60-second exploratory period, the tone was presented for 60 seconds without the footshock. Freezing response was measured to measure fear memory. The results are illustrated in FIG. 9 and FIG. 10.
For the fear conditioning test, on the first day, mice were placed in a conditioning chamber, and sound stimulation (10 kHz, 70 dB) and electrical stimulation (0.3 mA, 1 s) were given. On the second day, memory for space was checked without stimulation in the same conditioning chamber as on the first day, and on the third day, a memory test for fear was performed when only sound stimulation was given in another conditioning chamber.

B1: ASM-ab 23A12C3: self-made monoclonal ASM antibody, Koma biotech; heavy chain SEQ ID NO. 29, light chain SEQ ID NO. 30 (antibody)
heavy: MGWSWIFLFLLSGTAGVHSEVQLQQSGPVLVKPGASVKMSCKASGYTFTDYYMNWVKQSHGKSLEWIGVINPYNDGTSYNQKFKGKATLTVDKSSSTAYMELNSLTSEDSAVYYCAREKLYYYGRDYAMDYWGQGTSVTVSSAKTTPPSVYPLAPGSAAQTNSMVTLGCLVKGYFPEPVTVTWNSGSLSSGVHTFPAVLQSDLYTLSSSVTVPSSTWPSQTVTCNVAHPASSTKVDKKIVPRDCGCKPCICTVPEVSSVFIFPPKPKDVLTITLTPKVTCVVVDISKDDPEVQFSWFVDDVEVHTAQTKPREEQINSTFRSVSELPIMHQDWLNGKEFKCRVNSAAFPAPIEKTISKTKGRPKAPQVYTIPPPKEQMAKDKVSLTCMITNFFPEDITVEWQWNGQPAENYKNTQPIMDTDGSYFVYSKLNVQKSNWEAGNTFTCSVLHEGLHNHHTEKSLSHSPGK
light: MSSAQFLGLLLLCFQGTRCDIQMTQTTSSLSASLGDRVTISCRSSQDISNYLNWCQQKPDGTVKLLIYYTSRLHSGVPSRFSGSGSGTDYSLTISNLEQEDIATYFCQQDNTLPYTFGGGTKLEIKRADAAPTVSIFPPSSEQLTSGGASVVCFLNNFYPKDINVKWKIDGSERQNGVLNSWTDQDSKDSTYSMSSTLTLTKDEYERHNSYTCEATHKTSTSPIVKSFNRNEC
modifications: 23A12C3_Heavy chain; 23A12C3_Light chain
notes: self-made monoclonal ASM antibody, Koma biotech; 30
deposition of fibrillar Aβ (thioflavin S) (β-amyloid; FIG. 52A, 52B): significantly lower | deposition of Aβ40 (ELISA) (β-amyloid; FIG. 53A, 53B): significantly lower | deposition of Aβ42 (ELISA) (β-amyloid; FIG. 53A, 53B): significantly lower | level of ASM activity in the plasma (ASM): remarkably low | impairment in motor function [1]: improved | plasma ASM protein concentration (ASM protein): no difference | impairments in spatial memory, cognition and memory formation (fear conditioning test) (APP/PS1 mice): improved
